This note sets out measurements from patent US20240336672A1 (INSTITUT PASTEUR, published 2024).

For experiment [1], the target named is T1, CoV-NL63 Spike ectodomain (NL63-CoV, UniProt Q6Q1S2 19-1291).
T1 sequence: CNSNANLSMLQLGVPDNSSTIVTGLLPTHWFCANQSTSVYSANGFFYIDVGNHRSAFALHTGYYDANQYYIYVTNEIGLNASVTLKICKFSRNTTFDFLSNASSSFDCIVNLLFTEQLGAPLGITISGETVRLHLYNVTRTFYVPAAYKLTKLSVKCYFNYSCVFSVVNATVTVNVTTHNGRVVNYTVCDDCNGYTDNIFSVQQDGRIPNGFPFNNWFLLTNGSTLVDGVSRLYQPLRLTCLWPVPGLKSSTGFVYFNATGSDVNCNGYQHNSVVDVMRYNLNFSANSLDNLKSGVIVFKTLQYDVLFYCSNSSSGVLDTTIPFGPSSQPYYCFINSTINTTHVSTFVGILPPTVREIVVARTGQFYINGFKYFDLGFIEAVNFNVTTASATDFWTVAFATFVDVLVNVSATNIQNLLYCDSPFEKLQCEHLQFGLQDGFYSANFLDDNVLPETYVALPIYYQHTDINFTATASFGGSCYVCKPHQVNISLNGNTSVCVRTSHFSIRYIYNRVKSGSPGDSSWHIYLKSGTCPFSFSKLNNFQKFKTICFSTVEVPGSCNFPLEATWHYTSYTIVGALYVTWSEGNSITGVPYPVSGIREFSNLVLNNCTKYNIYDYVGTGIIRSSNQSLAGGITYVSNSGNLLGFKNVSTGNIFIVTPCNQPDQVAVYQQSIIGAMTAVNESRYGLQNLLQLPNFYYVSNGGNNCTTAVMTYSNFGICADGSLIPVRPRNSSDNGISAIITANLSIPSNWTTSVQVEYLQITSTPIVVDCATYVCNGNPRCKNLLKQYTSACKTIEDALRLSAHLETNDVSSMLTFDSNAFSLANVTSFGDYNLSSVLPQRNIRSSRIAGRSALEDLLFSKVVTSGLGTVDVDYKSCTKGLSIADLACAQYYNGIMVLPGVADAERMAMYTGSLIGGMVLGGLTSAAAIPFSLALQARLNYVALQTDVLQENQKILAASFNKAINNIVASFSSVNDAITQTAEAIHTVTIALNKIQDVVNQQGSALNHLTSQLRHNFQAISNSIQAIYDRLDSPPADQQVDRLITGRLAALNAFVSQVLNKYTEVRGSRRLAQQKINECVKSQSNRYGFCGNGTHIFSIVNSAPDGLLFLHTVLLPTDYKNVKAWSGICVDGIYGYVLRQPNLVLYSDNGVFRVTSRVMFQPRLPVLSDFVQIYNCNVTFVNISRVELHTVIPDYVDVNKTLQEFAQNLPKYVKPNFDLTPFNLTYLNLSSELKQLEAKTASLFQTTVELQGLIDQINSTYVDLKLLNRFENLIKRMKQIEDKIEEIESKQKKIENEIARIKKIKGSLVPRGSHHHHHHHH
As to the kind of experiment: ELISA, coated antigen. (In general: In an ELISA, binding on a coated surface is turned into a signal by an enzyme label.)

The target of experiment [2] is T2, CoV-OC43 Spike ectodomain (OC43-CoV, UniProt P36334 14-1263).
T2 chain: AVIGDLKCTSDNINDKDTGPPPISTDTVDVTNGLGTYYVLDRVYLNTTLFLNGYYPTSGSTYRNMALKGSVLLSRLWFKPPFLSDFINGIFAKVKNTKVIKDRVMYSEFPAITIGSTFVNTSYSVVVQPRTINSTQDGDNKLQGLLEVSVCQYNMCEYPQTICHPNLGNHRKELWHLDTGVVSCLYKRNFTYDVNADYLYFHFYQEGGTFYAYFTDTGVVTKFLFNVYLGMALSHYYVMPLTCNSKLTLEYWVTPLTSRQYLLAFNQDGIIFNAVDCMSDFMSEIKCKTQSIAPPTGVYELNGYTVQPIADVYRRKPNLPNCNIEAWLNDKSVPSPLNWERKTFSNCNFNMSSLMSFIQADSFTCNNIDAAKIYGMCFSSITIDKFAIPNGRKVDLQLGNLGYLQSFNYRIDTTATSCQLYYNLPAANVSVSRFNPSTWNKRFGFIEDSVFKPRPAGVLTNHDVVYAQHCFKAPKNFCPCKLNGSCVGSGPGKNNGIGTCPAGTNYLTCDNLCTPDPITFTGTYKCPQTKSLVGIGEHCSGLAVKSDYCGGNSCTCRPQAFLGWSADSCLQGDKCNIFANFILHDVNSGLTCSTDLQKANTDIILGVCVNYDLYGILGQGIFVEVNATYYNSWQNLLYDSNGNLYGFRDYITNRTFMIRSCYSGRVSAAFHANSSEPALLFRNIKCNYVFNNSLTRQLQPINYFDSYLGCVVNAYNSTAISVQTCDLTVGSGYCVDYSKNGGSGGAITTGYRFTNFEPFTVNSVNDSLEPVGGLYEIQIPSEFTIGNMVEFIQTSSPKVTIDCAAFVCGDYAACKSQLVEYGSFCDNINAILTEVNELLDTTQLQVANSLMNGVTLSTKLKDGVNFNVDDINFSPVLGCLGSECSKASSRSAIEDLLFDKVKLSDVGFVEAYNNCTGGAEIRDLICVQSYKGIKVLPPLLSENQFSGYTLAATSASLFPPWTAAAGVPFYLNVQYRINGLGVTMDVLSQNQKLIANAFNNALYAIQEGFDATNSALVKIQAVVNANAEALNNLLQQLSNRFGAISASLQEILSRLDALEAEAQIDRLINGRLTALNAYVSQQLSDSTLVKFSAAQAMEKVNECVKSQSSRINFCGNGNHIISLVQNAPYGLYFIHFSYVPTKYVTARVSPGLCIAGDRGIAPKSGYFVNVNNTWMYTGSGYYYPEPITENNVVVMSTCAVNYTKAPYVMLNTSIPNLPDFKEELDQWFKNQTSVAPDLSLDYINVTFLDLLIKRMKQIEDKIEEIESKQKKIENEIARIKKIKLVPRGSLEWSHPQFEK
In words: ELISA, coated antigen. Also: test concentration or dose not given here.

The target of experiment [3] is T1, CoV-NL63 Spike ectodomain. As to the kind of experiment: ELISA, coated spike ectodomain.

B1: Cv2.1353 (recombinant human IgG1) (antibody, V domains shown)
VH: EVQLVESGGGLVQPGGSLRLSCAASGVTVSSNYMNWVRQAPGKGLEWVSVIYSGGSTFYADSVKGRFIISRDNSKNTLYLQMNSLKTEDTAVYYCARDLGPMGFDIWGQGTMVTVSS
VL: DIQMTQSPSFLSASVGDRVTITCRASQGISSYLAWYQQKPGKAPKLLIYAASTLQSGVPSRFSGSGSGTEFTLTISSLQPEDFATYYCQQLNSDPPVTFGPGTKVDIKR
For B1, the “ELISA OD” value is 0.1 OD in experiment [1] and 0.8 OD in experiment [2]. Also, in experiment [3], the binding result was “no binding”.

B2: Cv2.3194 (recombinant human IgG1) (antibody, V domains shown)
VH: EVQLVESGGGLIQPGGSLRLSCAASGITVTSNYMSWVRQAPGKGLEWVSVIYPGGSTFYADSVKGRFTISRDNSKNTLYLQMNSLRAEDTAVYYCARDLVVYGMDVWGQGTTVTVSS
VL: EIVLTQSPGTLSLSPGERATLSCRASQSVSSSYLAWYQQKPGQAPRLLIYGASSRATGIPGRFSGSGSGTDFTLTISRLEPEDFAIYYCQQGVTFGGGTKVEIKR
On to B2, for which the “ELISA OD” value in experiment [1] is 0.1 OD; in experiment [2], 0.8 OD. Besides, in experiment [3], the binding result is recorded as “no binding”.

B3: Cv2.3235 (recombinant human IgG1) (antibody, V domains shown)
VH: EVQLVESGGGLIQPGGSLRLSCAASGFTVSRNYMSWVRQAPGKGLEWVSVIYSGGSTFYADSVKGRFTISRDNSKNTLYLQMNSLRAEDTAVYYCARDGDYYGMDVWGQGTTVTVSS
VL: DIQMTQSPSFLSASVGDRVTITCRASQGISSFLAWYQQKPGKAPKLLIYGASTLQSGVTSRFSGSGSGTEFTLTISSLQPEDFATYYCQRLDSYPPITFGQGTRLEIKR
For the molecule B3, the entries for the “ELISA OD” value in experiment [1] and in experiment [2] were 0.2 OD and 0.3 OD, respectively. Also, in experiment [3], the binding result was “no binding”.

B4: Cv2.5213 (recombinant human IgG1) (antibody, V domains shown)
VH: EVQLVESGGGLIQPGGSLRLSCAASGFTVSSNYMSWVRQAPGKGLEWVSLIYSGGSTYYADSVKGRFTISRDNSKNTLYLQMNSLRAEDTAVYYCARDLNYYGMDVWGQGATVTVSS
VL: DIQMTQSPSSLSASVGDRVTITCRASQGISSYLAWYQQKPGKAPKLLIYAASTLQSGVPSRFSGSGSGTDFTLTISSLQPEDFATYYCQQLDSYSPFTFGPGTKVDIKR
As for B4, the “ELISA OD” value in experiment [1] is 0.1 OD; in experiment [2], 0.7 OD. The binding result in experiment [3] is “no binding”.

B5: Cv2.1169 (recombinant human IgG1) (antibody)
heavy: QVQLVQSGPEVKKPGTSVKVSCKASGFTFTTSAVQWVRQARGQRLEWIGWIVVGSGNTNYAQKFQERVTITRDMSTTTAYMELSSLRSEDTAVYYCAAPYCSGGTCLDGFDIWGQGTMVTVSSASTKGPSVFPLAPSSKSTSGGTAALGCLVKDYFPEPVTVSWNSGALTSGVHTFPAVLQSSGLYSLSSVVTVPSSSLGTQTYICNVNHKPSNTKVDKKVEPKSCDKTHTCPPCPAPELLGGPSVFLFPPKPKDTLMISRTPEVTCVVVDVSHEDPEVKFNWYVDGVEVHNAKTKPREEQYNSTYRVVSVLTVLHQDWLNGKEYKCKVSNKALPAPIEKTISKAKQPREPQVYTLPPSRDELTKNQVSLTCLVKGFYPSDIAVEWESNGQPENNYKTTPPVLDSDGSFFLYSKLTVDKSRWQQGNVFSCSVMHEALHNHYTQKSLSLSPGK
light: not shown
notes: also called Cv2.1169 IgG
As for B5, the “ELISA OD” value in experiment [1] and in experiment [2] was 0.1 OD throughout. For the same molecule, the binding result in experiment [3] was “no binding”.
